Source: patent US20160333096A1 (published 2016)

T1: canine PD-1 antigen (canine)
T1 construct: also called cPD-1; canine Programmed Death Receptor 1
T1 chain: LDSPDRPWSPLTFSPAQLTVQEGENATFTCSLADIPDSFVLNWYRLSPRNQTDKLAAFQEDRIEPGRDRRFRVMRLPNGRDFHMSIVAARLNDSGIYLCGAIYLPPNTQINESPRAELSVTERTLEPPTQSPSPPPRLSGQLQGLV

B1: Murine 3B6 (antibody, V domains shown)
VH: QIQLVQSGPELKKPGETVKISCKASGYTFTTYGMSWVKQAPGKGLKWMGWINIYSGIPTYADDFKGRFAFSLETSASTAYLQIDNLKNEDTATYFCARFDGPDYWGQGTTLTVSS
VL: DIVMTQSPSSLAVSVGRKVTMSCKSSQSLLNSVNQKNYLAWYQQKPGQSPKVLVYFASARVSGVPDRFIGSGSGTDFTLAISSVQAEDLTTYFCQQYFSTPLTFGAGTKLELK
notes: Mouse monoclonal IgG from hybridoma; also called mAb 3B6
B2: Murine 2H9 (antibody, V domains shown)
VH: EVQLQQSVAELVRPGASVKLSCTASGFNIKNTYMHWIKQRPEQGLEWIGRIAPANVDTKYAPKFQGKATITADTSSNTAYMQLSTLTSEDTAIYYCVLIYYDYDGDIDVWGTGTTVTVSS
VL: DIQMNQSPSSLSASLGDTITITCHASQNINVWLSWYQQRPGNIPKLLIYKASHLHTGVPSRFSGSGSGTGFTLTISSLQPEDIATYYCQQGQSWPLTFGAGTKLELK
notes: also called mAb 2H9

Key:
canine PD-1 antigen [1] = molecular target: T1, canine PD-1 antigen; assay: SPR (Biacore T200), canine PD-1 amine-coupled to chip, antibody as analyte, 1:1 fit
Source text: (§1) Approximately 70 resonance units (RU) of the canine PD-1 antigen was immobilized directly by amine coupling. Affinity measurements were made via label-free surface plasmon resonance based technology (e.g., Biacore® T200) with an association time of 300 seconds, a dissociation time of 1200 seconds, and at concentrations of 50, 100, 200 (×2) 400, and 800 nanomolar (nM). A fitting model of 1:1 binding was used. […] Moreover, the mouse anti-canine PD-1 monoclonal antibody and the corresponding caninized mouse anti-canine PD-1 monoclonal antibody from the same clone yielded strikingly similar Kd values (see Table 5 below).

canine PD-1 antigen [2] = molecular target: T1, canine PD-1 antigen; assay: SPR (Biacore T200), canine PD-1 amine-coupled to chip, antibody as analyte, 1:1 fit; off-rate below detection limit
Source text: as §1

Row | Binder | Kd (canine PD-1 antigen [1]) | koff (canine PD-1 antigen [1]) | kon (canine PD-1 antigen [1]) | Kd (canine PD-1 antigen [2]) | koff (canine PD-1 antigen [2])
1 | B1 | 2 nM | 3.4e-05 s⁻¹ | 18000 M⁻¹ s⁻¹ | – | –
2 | B2 | – | – | 23000 M⁻¹ s⁻¹ | ≤ 0.2 nM | ≤ 5e-06 s⁻¹
